The target of test [1] is T1, GRK2 (Homo sapiens, UniProt P25098).
T1 construct: fused on or other part: hexahistidine tag
T1 sequence (P25098 1-669 limits assumed): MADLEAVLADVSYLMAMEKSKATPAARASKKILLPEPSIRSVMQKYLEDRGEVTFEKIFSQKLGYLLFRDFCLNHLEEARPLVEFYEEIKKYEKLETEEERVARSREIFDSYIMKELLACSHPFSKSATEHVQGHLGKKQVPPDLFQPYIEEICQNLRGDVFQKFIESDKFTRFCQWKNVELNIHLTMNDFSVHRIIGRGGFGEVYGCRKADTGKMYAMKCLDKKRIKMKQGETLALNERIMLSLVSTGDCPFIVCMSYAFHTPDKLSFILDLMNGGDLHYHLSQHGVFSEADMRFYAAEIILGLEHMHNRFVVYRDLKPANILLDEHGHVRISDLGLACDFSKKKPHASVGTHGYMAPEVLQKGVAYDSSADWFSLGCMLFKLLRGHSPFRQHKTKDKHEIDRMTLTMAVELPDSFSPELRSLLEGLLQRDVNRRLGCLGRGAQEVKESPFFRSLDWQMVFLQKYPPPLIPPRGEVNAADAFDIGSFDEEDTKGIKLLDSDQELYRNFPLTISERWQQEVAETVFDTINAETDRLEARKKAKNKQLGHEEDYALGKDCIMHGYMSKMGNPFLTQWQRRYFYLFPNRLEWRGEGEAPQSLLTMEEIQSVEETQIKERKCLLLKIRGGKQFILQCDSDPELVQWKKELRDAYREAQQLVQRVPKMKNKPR
As to the kind of experiment: In vitro phosphorylation assay: GRK2-mediated phosphorylation of phosducin. Format: biochemical. The note with it: n=6-7; read-out: IC50, inhibition of GRK2-induced phosducin phosphorylation. From the text: Recombinant human GRK2 protein and GRK2-S670A protein was expressed in and purified from Spodoptera frugiperda (Sf9) cells by the baculoviral expression system. The cDNAs encoding hexahistidine-tagged human GRK2 (ADRBK1) GRK2-S670A were subcloned into the pFastBac1 expression plasmid (INVITROGEN™, THERMO FISHER SCIENTIFIC®, Waltham, Mass., USA) using the Sal I/Hind III restriction sites, recombinant baculovirus was generated by the Bac-To-Bac Baculovirus expression system (THERMO FISHER SCIENTIFIC®, Waltham, Mass., USA). Sf9 cells were infected with recombinant baculoviruses at an MOI of 2-3, 48 h after infection cells were harvested by centrifugation, lysed with lysis buffer (300 mM NaCl, 50 mM HEPES, pH 7.5 supplemented with 1% NP40, 1 mM PMSF and protease inhibitor cocktail) and applied to Ni-NTA chromatography. After overnight incubation at 4° C., unbound proteins were removed by washing with lysis buffer (20× column volumes) followed by 1× column volume of 30 mM imidazole-containing lysis buffer. Bound GRK2 was eluted by 300 mM imidazole in lysis buffer, desalted by PD10 column chromatograpy, supplemented with 20% glycerol and stored at −80° C. for further use. […]

The subject of test [2] is GPCR phosphorylation. The note with it: Lorenz K, et al., Nature 426, 574-579 (2003); read-out: reported IC50 value for RKIP-mediated inhibition of GPCR phosphorylation; cited from earlier work.

B1: RKIP: raf kinase inhibitor protein, a dual-specific GRK2 and Raf kinase inhibitor (protein, UniProt P30086 2-187, looked up)
Phosphatidylethanolamine-bindi …: PVDLSKWSGPLSLQEVDEQPQHPLHVTYAGAAVDELGKVLTPTQVKNRPTSISWDGLDSGKLYTLVLTDPDAPSRKDPKYREWHHFLVVNMKGNDISSGTVLSDYVGSGPPKGTGLHRYVWLVYEQDRPLKCDEPILSNRSGDHRGKFKVASFRKKYELRAPVAGTCYQAEWDDYVPKLYEQLSGK
For the molecule B1, the IC50 was 950 nM in test [1] and 460 nM in test [2].

These data come from patent US11628159B2, “Cell-protective compounds and their use” (ETH ZURICH, priority 2017, dated 2023).
